Laboratory results taken from patent JP2007535905A.

Molecular target: SM5−1抗原(BIAcore測定に用いた形は記載なし)
Assay: BIAcore (Pharmacia), kinetic analysis after Karlsson et al.

B1: 抗ヒトSM5−1ヒト化抗体(ReSM5−1) (antibody, V domains shown)
VH: QVQLVQSGGGVVQPGRSLRLSCKASGYTFTSYVMHWVRQAPGKGLEWIGYIVPYNDGTKYNEKFKGRFTISSDKSKSTAFLQMDSLRPEDTAVYYCARGSRYDWYLDYWGQGTPVTVSS
VL: NIMMTQSPSSLSASVGDRVTITCKSSQSVLYSSNQKNYLAWYQQTPGKAPKLLIYWASTRESGVPSRFSGSGSGTDYTFTISSLQPEDIATYYCHQYFSSYTFGQGTKLQITR
Kd: 9.31 nM
